Results: patent US8242080B2, “Inhibitors of the EGFR kinase targeting the asymmetric activating dimer interface” (The Regents of the University of California, priority 2006, dated 2012)
Where a SMILES comes first, the peptide text is derived from it.

Key:
activated EGFR kinase = biological target: T1, activated EGFR kinase (Homo sapiens, UniProt P00533); assay: Inhibition of activated EGFR kinase (kinase assay with kinase domain attached to vesicles); format: biochemical; settings: read-out: IC50 inhibiting activated EGFR kinase
T1 construct: DNA encoding residues 672-998 of human EGFR was cloned into pFAST BAC HT; made in house; host or cells: Sf9 insect cells (baculovirus, pFAST BAC HT; b247 prints 'SD cells')
Method: (§1) A continuous enzyme-coupled kinase assay was performed to measure the kinase activity of the proteins as described in Barker et al., ((1995) Biochemistry, Vol. 34(54): 14843-51), with modifications, as described herein. The ATP concentration was kept to 0.5 mM.
(§2) The buffer used contained 10 mM MgCl2, 20 mM Tris, and pH 7.5. […] The substrate peptide was derived from the region spanning Y1173 in EGFR ([…]) (SEQ ID NO: 7). All proteins used in this assay contained the N-terminal (His)6 tag unless otherwise noted.
The protein concentrations of the EGFR kinase domain used in the assay ranged from 3.5 to 14 μM. The total concentration of the DOGS-NTA-Ni in the bulk solution was kept to 12.5 μM in all assays with DOG-NTA-Ni-containing vesicles. For assays of the kinase domain attached to vesicles, the protein and vesicles were preincubated at 4° C. for ˜5 min.
The wildtype EGFR kinase domain was mixed with vesicles containing 0, 0.5, 1, 2 and 5 mole percent of DOGS-NTA-Ni prior to the start of the assay. The final concentration of the protein in the assay was 3.5 μM. […]
For comparing the specific activity of the wildtype and various mutant forms of the EGFR kinase domain in the presence and absence of lipid vesicles, the density of DOGS-NTA-Ni on lipid vesicles was kept at 5 mole percent. […] Due to this high value of KM, the values of KM and kcat were not measured directly. […]

[1] = biological target: T2, wildtype EGFR kinase domain (Homo sapiens, UniProt P00533); assay: Continuous enzyme-coupled kinase assay, substrate peptide KM; format: biochemical; settings: preliminary experiments, substrate peptide at various concentrations; ATP 0.5 mM
T2 construct: DNA encoding residues 672-998 of human EGFR was cloned into pFAST BAC HT; made in house; host or cells: Sf9 insect cells (baculovirus, pFAST BAC HT; b247 prints 'SD cells')
Method: as §1, §2
For comparing the specific activity of the wildtype and various mutant forms of the EGFR kinase domain in the presence and absence of lipid vesicles, the density of DOGS-NTA-Ni on lipid vesicles was kept at 5 mole percent. […] Due to this high value of KM, the values of KM and kcat were not measured directly. Instead, the value of kcat/KM was derived from a linear fit to the data obtained, using concentrations of the peptide that are much lower than the estimated value of KM (V=[S]Vmax/(KM+[S]), V˜(Vmax/KM)[S] when [S]<<KM, kcat=Vmax/amount of the enzyme, where V and Vmax are the initial velocity and maximum initial velocity, respectively. (FIG. 6A).

Molecule	IC50 (activated EGFR kinase) [µM]	Km [1] [mM]
KSLPSYLNGVMPPTQSFAPDPKYVSS [40-mer peptide]	~10	–
CC(C)C[C@H](NC(=O)[C@H](Cc1ccc(O)cc1)NC(=O)[C@H](CCC(=O)O)NC(=O)[C@H](C)NC(=O)[C@H](CC(N)=O)NC(=O)[C@H](CCC(=O)O)NC(=O)[C@H](C)NC(=O)[C@@H](N)[C@@H](C)O)C(=O)N[C@@H](CCCNC(=N)N)C(=O)N[C@H](C(=O)N[C@@H](C)C(=O)N1CCC[C@H]1C(=O)N[C@@H](CCC(N)=O)C(=O)O)C(C)C [substrate peptide] (H-TAENAEYLRVAPQ-OH)	–	> 4
